Experiments:
[1] = molecular target: T1, taxol-stabilized microtubules (tubulin) (Sus scrofa, UniProt P02550); experiment: TIRF microscopy, Hill fit (150 mM salt)
T1 chain 1: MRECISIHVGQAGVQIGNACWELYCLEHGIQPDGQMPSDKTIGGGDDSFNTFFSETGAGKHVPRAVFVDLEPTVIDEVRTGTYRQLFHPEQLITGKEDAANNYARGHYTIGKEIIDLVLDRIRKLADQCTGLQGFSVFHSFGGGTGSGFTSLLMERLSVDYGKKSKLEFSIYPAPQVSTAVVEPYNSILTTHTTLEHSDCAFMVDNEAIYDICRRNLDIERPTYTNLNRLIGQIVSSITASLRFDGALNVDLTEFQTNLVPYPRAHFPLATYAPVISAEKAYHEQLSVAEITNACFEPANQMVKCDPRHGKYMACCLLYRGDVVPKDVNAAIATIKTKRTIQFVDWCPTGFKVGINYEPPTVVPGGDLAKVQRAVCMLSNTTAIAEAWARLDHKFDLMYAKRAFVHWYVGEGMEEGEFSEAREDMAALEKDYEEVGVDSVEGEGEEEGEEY
T1 chain 2: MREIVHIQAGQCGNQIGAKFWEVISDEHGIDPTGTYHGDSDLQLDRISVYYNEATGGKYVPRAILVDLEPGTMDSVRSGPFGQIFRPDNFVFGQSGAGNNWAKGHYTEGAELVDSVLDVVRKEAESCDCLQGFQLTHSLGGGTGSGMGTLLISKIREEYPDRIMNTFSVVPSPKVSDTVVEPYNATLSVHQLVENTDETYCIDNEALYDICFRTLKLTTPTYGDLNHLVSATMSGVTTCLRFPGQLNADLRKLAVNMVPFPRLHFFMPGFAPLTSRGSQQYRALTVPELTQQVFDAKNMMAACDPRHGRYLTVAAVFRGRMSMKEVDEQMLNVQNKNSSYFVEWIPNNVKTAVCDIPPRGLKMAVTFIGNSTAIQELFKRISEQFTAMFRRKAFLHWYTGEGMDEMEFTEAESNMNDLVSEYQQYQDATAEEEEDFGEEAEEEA

[2] = molecular target: T1, taxol-stabilized microtubules (tubulin); experiment: TIRF microscopy, Hill fit (no added salt)

B1: HURP 1-285 (protein)
chain: MSSSHFASRHRKDISTEMIRTKIAHRKSLSQKENRHKEYERNRHFGLKDVNIPTLEGRILVELDETSQGLVPEKTNVKPRAMKTILGDQRKQMLQKYKEEKQLQKLKEQREKAKRGIFKVGRYRPDMPCFLLSNQNAVKAEPKKAIPSSVRITRSKAKDQMEQTKIDNESDVRAIRPGPRQTSEKKVSDKEKKVVQPVMPTSLRMTRSATQAAKQVPRTVSSTTARKPVTRAANENEPEGKVPSKGRPAKNVETKPDKGISCKVDSEENTLNSQTNATSGMNPDG
modifications: C-terminal eGFP fusion, taxol-stabilized microtubules
For B1, the Kd [1] was ~300 nM and the Kd [2] was ~29 nM.

Reference: paper PMC11549086 (2024)
